In patent US9315544B2, “Method of treating eosinophilia by administering an immunomodulating peptide” (National Tsing Hua University, priority 2012, dated 2016):

B1: ECP: eosinophil cationic protein, recombinant; marker protein of asthma used as stimulus (protein, UniProt P12724 28-160, looked up)
Eosinophil cationic protein: RPPQFTRAQWFAIQHISLNPPRCTIAMRAINNYRWRCKNQNTFLRTTFANVVNVCGNQSIRCPHNRTLNNCHRSRFRVPLLHCDLINPGAQNISNCTYADRPGRRFYVVACDNRDPRDSPRYPVVPVHLDTTI
B2: IL-4: a dominant cytokine regulating CCL11, used as stimulus (protein, UniProt P05112 25-153, looked up)
Interleukin-4: HKCDITLQEIIKTLNSLTEQKTLCTELTVTDIFAASKNTTEKETFCRAATVLRQFYSHHEKDTRCLGATAQQFHRHKQLIRFLKRLDRNLWGLAGLNSCPVKEANQSTLENFLERLKTIMREKYSKCSS

Assays:
Assay type in all cases: cell-based
CCL11 = assay: Cytokine mRNA expression analysis by quantitative real-time PCR (CCL11); conditions: 5 μM ECP, Beas-2B cells, relative to mock-treated
Description: (§1) FIG. 1A-1B illustrates immunomodulatory effect of CMP on transcription of cytokine. Beas-2B cells were starved with serum free medium for 24 h, followed by stimulation with refold 5 μM ECP or 5 μM CMP or co-treatment with 5 μM ECP and 5 μM CMP at 37° C. for (A) 6 h and (B) 12 h, respectively. The mRNA quantities of CCL11, CCL24 and CCL26 were determined by real-time PCR. Beas-2B cells without protein treatment were used as control. […] The data represented at least three independent experiments and the error bar was shown as standard deviation (SD).
For inflammatory cytokine expression analysis, Beas-2B cells were stimulated with three different conditions: 1) 5 μM ECP, 2) 5 μM CMP and 3) co-incubated with 5 μM ECP and 5 μM CMP at 37° C. for 6 and 12 h. After incubation, total RNAs were extracted with RNA TRIzol reagent (Invitrogen, Inc) and reverse transcribed with MoMLV-reverse transcriptase (Promega, Madison, Wis.). SYBR Green-based quantitative real-time PCR will be used to quantify the gene of interest, relative expression ratios of genes of interest were normalized to glyceraldehyde-3-phosphate dehydrogenase (GAPDH) transcripts. Changes in cytokine expression were measured by quantitative real-time PCR (qRT-PCR) employing the StepOne™ amplification and detection system (Life Technologies Corporation). Data were analyzed by application of the StepOne™ quantification program software (version 2.22, Life Technologies Corporation) and expressed as means±S.D. Significance analysis was carried out by a two-sample unequal variance t-test with two-tailed distribution (post test). Significance was set as P<0.05.
ECP, the best known marker protein of asthma, is involved in triggering cytokine expression in bronchial epithelial cells. Real-time PCR analysis was carried out to quantify expression levels of indicated cytokines upon treatment with recombinant ECP in the presence and absence of CMP Bronchial epithelial Beas-2B cells were separately cultured in serum-free medium in the presence of 5 μM ECP, 5 μM CMP and both 5 μM ECP and 5 μM CMP for 6 and 12 h to monitor cytokine and chemokine gene modulation using real-time quantitative PCR. Untreated Beas-2B cells incubated at the same condition for 6 h and 12 h were used as negative controls. Here variation of gene expression levels of chemokines including CCL11, CCL24 and CCL26 was analyzed.

CCL26 = assay: Cytokine mRNA expression analysis by quantitative real-time PCR (CCL26); conditions: 5 μM ECP, Beas-2B cells, 6 h, relative to mock-treated
Description: as §1
For inflammatory cytokine expression analysis, Beas-2B cells were stimulated with three different conditions: 1) 5 μM ECP, 2) 5 μM CMP and 3) co-incubated with 5 μM ECP and 5 μM CMP at 37° C. for 6 and 12 h. […] SYBR Green-based quantitative real-time PCR will be used to quantify the gene of interest, relative expression ratios of genes of interest were normalized to glyceraldehyde-3-phosphate dehydrogenase (GAPDH) transcripts. Changes in cytokine expression were measured by quantitative real-time PCR (qRT-PCR) employing the StepOne™ amplification and detection system (Life Technologies Corporation). […]
ECP, the best known marker protein of asthma, is involved in triggering cytokine expression in bronchial epithelial cells. […] Here variation of gene expression levels of chemokines including CCL11, CCL24 and CCL26 was analyzed.

human CCL11 = assay: CCL11 protein release from Beas-2B cells by ELISA; conditions: 37° C., 24 h
Description: FIG. 2 illustrates CCL11 expression in CMP and ECP co-treated Beas-2B cells. Beas-2B cells were starved with serum free medium for 24 h, followed by stimulation with ECP (column 2). Cells were stimulated with PBS as negative control (column 1) and ECP in the absence of CMP (column 2) or presence of 1 μM (column 3), 2.5 μM (column 4), 5 μM (column 5), 10 μM (column 6) CMP at 37° C. for 24 h. CCL11 protein level was determined by ELISA kit employing CCL11 antibody. The data represented mean±SD (standard deviation) of at least three independent experiments. ***, p<0.001; **, p<0.01
FIG. 3 illustrates CCL11 expression in CMP and IL-4 co-treated Beas-2B cells. Beas-2B cells were starved with serum free medium for 24 h, followed by stimulation with PBS (column 1) or 10 ng/mL IL-4 (column 2-7). Cells were stimulated with 10 ng/mL IL-4 in the absence […] or presence of 1 μM (column 3), 2.5 μM (column 4), 5 μM (column 5) and 10 μM (column 6) CMP at 37° C. for 24 h. CCL11 protein level was determined by ELISA kit employing CCL11 antibody. The data represented mean±SD (standard deviation) of at least three independent experiments. ***, p<0.001 (Stimulation with IL-4 compared with PBS treated Beas-2B cells). *, p<0.05 (Stimulation with indicated concentrations of CMP compared with IL-4 treated Beas-2B cells).
CCL11 ELISA kit (R&D) is an in vitro enzyme-linked immunosorbent assay for quantitative determination of human CCL11 concentration in cell culture supernatants. This assay employed an antibody specific for human CCL11 coated on a 96-well plate. The wells were incubated with 50 μL standard or sample for 2.5 hours at room temperature. After washing with 1× wash solution five times, 200 μL of CCL11 conjugate were added into each wells for 1 h. After washing, 100 μL TMB One-Step Substrate Reagent were added into each wells at room temperature for 30 minutes. 50 μL of Stop Solution were added into each wells and read at 450 nm by spectrophotometer immediately. Limit of detection in the assay was 5 pg/mL.
To investigate whether CMP influenced ECP-mediated CCL11 expression, Beas-2B cells were separately stimulated with 5 μM ECP in the absence of CMP and in the presence of 1 μM, 2.5 μM, 5 μM and 10 μM CMP at 37° C. for 24 h.
To further investigate whether CMP influenced CCL11 production from other stimulation in Beas-2B cells, serum-deprived Beas-2B cells were stimulated with 10 ng/mL IL-4, a dominant cytokine regulating CCL11, alone or in the presence of CMP at concentrations 1, 2.5, 5 and 10 μM at 37° C. for 24 h.

Molecule | CCL11 gene expression level increase (CCL11; 6 h) | CCL11 gene expression level increase (CCL11; 12 h) | CCL26 gene expression level increase (CCL26) | CCL11 release (human CCL11; 5 μM ECP alone, Beas-2B cells) | CCL11 release (human CCL11; 10 ng/mL IL-4 alone, serum-deprived Beas-2B cells)
B1 | 9 fold | 2.8 fold | 2 fold | 17.8 pg/mL | 
B2 |  |  |  |  | 73.2 pg/mL
